Measurements as given in patent US20100159482A1 (LIFE TECHNOLOGIES, published 2010).
The star is where a group is joined. MeOSuc = COC(=O)CCC(=O)*; CH2Cl = ClC*

B1: MeOSuc-AlaAlaAlaProLeu-CH2Cl (peptide)
peptide: AAAPL
HELM: PEPTIDE1{[COC(=O)CCC(=O)[*:2]].A.A.A.P.L.[ClC[*:1]]}$$$$V2.0
SMILES: COC(=O)CCC(=O)N[C@@H](C)C(=O)N[C@@H](C)C(=O)N[C@@H](C)C(=O)N1CCC[C@H]1C(=O)N[C@@H](CC(C)C)C(=O)CCl
notes: also called MeOSuc-AAAPL-CH2Cl; A3PL
B2: MeOSuc-AlaAlaAlaProPhe-CH2Cl (peptide)
peptide: AAAPF
HELM: PEPTIDE1{[COC(=O)CCC(=O)[*:2]].A.A.A.P.F.[ClC[*:1]]}$$$$V2.0
SMILES: COC(=O)CCC(=O)N[C@@H](C)C(=O)N[C@@H](C)C(=O)N[C@@H](C)C(=O)N1CCC[C@H]1C(=O)N[C@@H](Cc1ccccc1)C(=O)CCl
B3: MeOSuc-AlaAlaAlaProVal-CH2Cl (peptide)
peptide: AAAPV
HELM: PEPTIDE1{[COC(=O)CCC(=O)[*:2]].A.A.A.P.V.[ClC[*:1]]}$$$$V2.0
SMILES: COC(=O)CCC(=O)N[C@@H](C)C(=O)N[C@@H](C)C(=O)N[C@@H](C)C(=O)N1CCC[C@H]1C(=O)N[C@H](C(=O)CCl)C(C)C
B4: MeOSuc-AlaAlaProPhe-CH2Cl (peptide)
peptide: AAPF
HELM: PEPTIDE1{[COC(=O)CCC(=O)[*:2]].A.A.P.F.[ClC[*:1]]}$$$$V2.0
SMILES: COC(=O)CCC(=O)N[C@@H](C)C(=O)N[C@@H](C)C(=O)N1CCC[C@H]1C(=O)N[C@@H](Cc1ccccc1)C(=O)CCl
notes: also called MeOSuc-AAPF-CH2Cl; MSFCK
B5: MeOSuc-AlaAlaProLeu-CH2Cl (peptide)
peptide: AAPL
HELM: PEPTIDE1{[COC(=O)CCC(=O)[*:2]].A.A.P.L.[ClC[*:1]]}$$$$V2.0
SMILES: COC(=O)CCC(=O)N[C@@H](C)C(=O)N[C@@H](C)C(=O)N1CCC[C@H]1C(=O)N[C@@H](CC(C)C)C(=O)CCl
notes: also called MeOSuc-AAPL-CH2Cl; methoxysuccinyl-AAPL-chloromethyl ketone
B6: MeOSuc-AlaProAlaLeu-CH2Cl (peptide)
peptide: APAL
HELM: PEPTIDE1{[COC(=O)CCC(=O)[*:2]].A.P.A.L.[ClC[*:1]]}$$$$V2.0
SMILES: COC(=O)CCC(=O)N[C@@H](C)C(=O)N1CCC[C@H]1C(=O)N[C@@H](C)C(=O)N[C@@H](CC(C)C)C(=O)CCl

Target: T1, proteinase K (UniProt P06873 106-384)
Assay: computed, not measured: CDOCKER docking on PDB 3PRK, MM-PBSA rescoring, average of three poses
Experimental: Based on the studies cited in the previous examples, a study was carried out to examine the change in total binding free energy of peptide inhibitor to proteinase K to form the peptide-inhibitor complex. The molecular docking of inhibitors MeOSuc-AAPV-CH₂Cl (SEQ ID NO:2), MeOSuc-AAPL-CH₂Cl (SEQ ID NO:10), MeOSuc-AAAPV-CH₂Cl (SEQ ID NO:8), MeOSuc-AAAPL-CH₂Cl (SEQ ID NO:7), MeOSuc-AAAPF-CH₂Cl (SEQ ID NO:9), MeOSuc-AAPA-CH₂Cl (SEQ ID NO:1), and MeOSuc-AAPF-CH₂Cl (SEQ ID NO:5) into the binding site of Proteinase K was performed using CDOCKER of Discovery Studio V2.01 (1. (Accelrys Software Inc., Discovery Studio Modeling Environment, Release 2.01, San Diego: Accelrys Software Inc., 2008., trial version) which uses a CHARMm based Molecular Dynamics docking algorithm. The crystal structure of the protein complex covalently formed between proteinase K and MeOSuc-AAPA-CH₂Cl (SEQ ID NO:1) was used as a starting structure for molecular simulation (PDB CODE: 3PRK; Wolf W M et al. J. Biol. Chem. 1991, 266, 17695). Water molecules were removed from the protein complex, protonated at pH 8.0 and the structure was energy minimized using CHARMm force field with a convergence threshold of 0.05 kcal/mol A. Then, the inhibitor part was removed from the protein complex and was used to build the structures of MeOSuc-AAPV-CH₂Cl (SEQ ID NO:2) (see FIG. 8A), MeOSuc-AAPL-CH₂Cl (SEQ ID NO:10) (see FIG. 9A), MeOSuc-AAAPV-CH₂Cl (SEQ ID NO:8) (see FIG. 8B), MeOSuc-AAAPL-CH₂Cl (SEQ ID NO:7) (see FIG. 9B), MeOSuc-AAAPF-CH₂Cl (SEQ ID NO:9) (see FIG. 11B), MeOSuc-AAPA-CH₂Cl (SEQ ID NO:1) (see FIG. 10), and MeOSuc-AAPF-CH₂Cl (SEQ ID NO:5) (see FIG. 11A). A site sphere with a radius of 13A was created at center of the active site of inhibitor-free proteinase K.
The CDOCKER algorithm can generate several different orientations for each inhibitor in the active site of proteinase K within the site sphere and perform MD-based simulated annealing followed by final minimization. […] The MD simulation for each orientation consisted of 1000 steps at 2 fs per step and at 1000 K. No inherent restrictions were placed on the conformers of inhibitors.

T1 sequence (P06873 106-384 limits assumed): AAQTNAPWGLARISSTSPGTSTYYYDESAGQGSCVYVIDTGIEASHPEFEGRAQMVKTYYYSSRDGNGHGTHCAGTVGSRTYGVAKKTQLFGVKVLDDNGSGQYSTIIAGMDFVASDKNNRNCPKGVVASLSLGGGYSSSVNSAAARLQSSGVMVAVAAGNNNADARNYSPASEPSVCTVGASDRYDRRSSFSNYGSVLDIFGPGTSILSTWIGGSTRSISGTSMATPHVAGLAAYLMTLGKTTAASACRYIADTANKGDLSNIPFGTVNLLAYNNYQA

| Molecule | ΔΔGBind (total binding free energy, calculated) |
| --- | --- |
| methoxysuccinyl-AlaAlaProAla-chloromethyl ketone (peptide) | -14.6 kcal/mol |
| B1 | -30.9 kcal/mol |
| B2 | 9.95 kcal/mol |
| B3 | 1.32 kcal/mol |
| MeOSuc-AAPV-CH2Cl (also called MeOSuc-AAPV-CH2Cl; MSVCK) [methoxysuccinyl-AlaAlaProVal-chloromethyl ketone] | -6.63 kcal/mol |
| B4 | -2.55 kcal/mol |
| B5 | -12.7 kcal/mol |

Target: T1, proteinase K
Assay: cell-based or functional assay

| Molecule | effective inhibitory concentration, beta-actin RT-qPCR from HeLa cell lysates | lowest inhibitory concentration in the stopped mixture, indirect linked RT-qPCR assay |
| --- | --- | --- |
| B1 | ~0.1 mM | ~0.05 mM |
| B2 | 0.1 mM | – |
| B3 | 0.5 mM | – |
| B6 | – | ~0.5 mM |
| MeOSuc-AAPV-CH2Cl (also called MeOSuc-AAPV-CH2Cl; MSVCK) [methoxysuccinyl-AlaAlaProVal-chloromethyl ketone] | 0.5 mM | ~0.25 mM |
| B4 | – | ~0.05 mM |
| B5 | ~0.1 mM | – |
